According to patent US20240132578A1:

Tests used:
Test in all cases: cell-based or functional assay
[1] = target: HIV-1 92BR020 Env (HIV-1)
[2] = target: HIV-1 JR-CSF Env N392Q (HIV-1 (isolate JR-CSF)) (UniProt P20871)
[3] = target: HIV-1 envelope glycoprotein (Env) of isolate 93UG077, subtype A (HIV-1)
[4] = target: HIV-1 envelope glycoprotein (Env) of isolate MG RM-A-005, subtype A (HIV-1)
[5] = target: HIV-1 envelope glycoprotein (Env) of isolate MG RM-A-007, subtype A (HIV-1)
[6] = target: HIV-1 envelope glycoprotein (Env) of isolate MG RM-A-009, subtype A (HIV-1)
[7] = target: HIV-1 envelope glycoprotein (Env) of isolate MGRM-AE-003, subtype AE (HIV-1)
[8] = target: HIV-1 envelope glycoprotein (Env) of isolate MGRM-Chronic-B-011, on pseudovirus (HIV-1)
[9] = target: HIV-1 envelope glycoprotein (Env) of isolate MGRM-Chronic-B-017, on pseudovirus (HIV-1)
[10] = target: HIV-1 Env of isolate MGRM-AG-009 (subtype AG) (HIV-1)
[11] = target: HIV-1 Env of isolate MGRM-AG-012 (subtype AG) (HIV-1)
[12] = target: HIV-1 Env of isolate MGRM-Chronic-B-008 (HIV-1)
[13] = target: HIV-1 Env of isolate MGRM-D-024 (HIV-1)
[14] = target: HIV-1 Env of isolate MGRM-D-028 (HIV-1)
[15] = target: HIV-1 Env of isolate MGRM-F1-013 (HIV-1)
[16] = target: HIV-1 Env of isolate MGRM-F1-014 (HIV-1)
[17] = target: HIV-1 Env of isolate VLGCA1 (subtype A) (HIV-1)
[18] = target: HIV-1 Env of pseudovirus isolate MGRM-C-015 (clade C) (HIV-1)
[19] = target: HIV-1 Env of isolate MGRM-D-005 (HIV-1)
[20] = target: HIV-1 Env of isolate MGRM-G-011 (subtype G) (HIV-1)
[21] = target: HIV-1 Env of pseudovirus isolate MGRM-Chronic-B-008 (clade B) (HIV-1)

Substance	IC50, pseudovirus neutralization [1] [µg/mL]	Fold IC50 increase relative to wild-type (pseudovirus neutralization) [2] [fold]	IC50, pseudovirus neutralization [10] [µg/mL]	IC50, pseudovirus neutralization [11] [µg/mL]	IC50 (µg/mL), pseudovirus neutralization [12] [µg/mL]	IC50 (µg/mL), pseudovirus neutralization [13] [µg/mL]	IC50 (µg/mL), pseudovirus neutralization [14] [µg/mL]	IC50 (µg/mL), pseudovirus neutralization [15] [µg/mL]	IC50 (µg/mL), pseudovirus neutralization [16] [µg/mL]	IC50, pseudovirus neutralization [17] [µg/mL]	IC50, pseudovirus neutralization [18] [µg/mL]	IC50 (µg/mL), pseudovirus neutralization [20] [µg/mL]	further results
4858_P08 (PGT-123) (antibody)	0.013	1	–	–	–	–	–	–	–	–	–	–	IC50, pseudovirus neutralization [3]: 0.028 µg/mL; IC50, pseudovirus neutralization [4]: > 50 µg/mL; IC50, pseudovirus neutralization [5]: > 50 µg/mL; IC50, pseudovirus neutralization [6]: 0.004 µg/mL; IC50, pseudovirus neutralization [7]: > 50 µg/mL; IC50, pseudovirus neutralization [8]: > 50 µg/mL; IC50, pseudovirus neutralization [9]: > 50 µg/mL
4838_L06 (PGT-121) (antibody)	–	–	–	–	–	–	–	–	–	–	–	–	IC50, pseudovirus neutralization [3]: 0.019 µg/mL; IC50, pseudovirus neutralization [4]: > 50 µg/mL; IC50, pseudovirus neutralization [5]: > 50 µg/mL; IC50, pseudovirus neutralization [6]: 0.006 µg/mL; IC50, pseudovirus neutralization [7]: > 50 µg/mL; IC50, pseudovirus neutralization [8]: > 50 µg/mL; IC50, pseudovirus neutralization [9]: > 50 µg/mL
4877_D15 (PGT-122) (antibody)	0.0337	–	–	–	–	–	–	–	–	–	–	–	IC50, pseudovirus neutralization [3]: 0.084 µg/mL; IC50, pseudovirus neutralization [4]: > 50 µg/mL; IC50, pseudovirus neutralization [5]: > 50 µg/mL; IC50, pseudovirus neutralization [6]: 0.012 µg/mL; IC50, pseudovirus neutralization [7]: > 50 µg/mL; IC50, pseudovirus neutralization [8]: > 50 µg/mL; IC50, pseudovirus neutralization [9]: 5.66 µg/mL
5114_A19 (PGT-128) (antibody)	–	0.9	0.021	> 50	0.143	0.067	> 50	12.7	0.277	0.838	0.196	–	–
4993_K13 (PGT-141) (antibody)	> 10	–	–	–	–	–	–	–	–	–	–	0.086	IC50 (µg/mL), pseudovirus neutralization [19]: 5.15 µg/mL; IC50, pseudovirus neutralization [21]: > 50 µg/mL
5329_C19 (PGT-136) (antibody)	> 10	–	> 50	> 50	> 50	> 50	> 50	> 50	> 50	> 50	11.1	–	–
4995_P16 (PGT-145) (antibody)	–	–	–	–	–	–	–	–	–	–	–	0.028	IC50 (µg/mL), pseudovirus neutralization [19]: 10.4 µg/mL; IC50, pseudovirus neutralization [21]: 1.9 µg/mL
5136_H01 (PGT-131) (antibody)	–	0.4	> 50	> 50	> 50	> 50	> 50	> 50	> 50	> 50	1.01	–	–
PGV04 (antibody)	–	–	–	–	–	–	–	–	–	–	–	0.78	–
5343_B08 (PGT-135) (antibody)	0.104	> 250	> 50	41.9	> 50	> 50	> 50	21.1	> 50	> 50	0.104	–	–
4995_E20 (PGT-142) (antibody)	> 10	–	–	–	–	–	–	–	–	–	–	0.046	IC50 (µg/mL), pseudovirus neutralization [19]: 1.15 µg/mL; IC50, pseudovirus neutralization [21]: > 50 µg/mL
